From PMC6465249 (Cell Discovery, 2019)

B1: AF4H1K1 Fab (Fab, V domains shown)
VH: QVQLVESGGGVVQPGTSLRLSCEASGFTSSAYAMHWVRQAPGKGLEWVAVITFDGGYQYYADSVKGRFTISRDISRNTLHLHMNSLRAEDTAVYYCARDPLTKLLPFDWVSGGYFDYWGQGTLVTVSS
VL: not shown
notes: also called H1 paired with K1
B2: AF4H1/FI6v3L Fab (Fab, V domains shown)
VH: B1 VH
VL: not shown
notes: also called AF4H1/FI6L; hybrid MAb with heavy chain from AF4H1K1 and light chain from FI6v3
B3: AF4H1K1 Fab (Fab, V domains shown)
VH: B1 VH
VL: not shown
notes: also called AF4H1K1 Fab fragment
B4: AF4H1/L1CDR3m (antibody, V domains shown)
VH: B1 VH
VL: SYELTQPPSVSVSPGQTASITCSGDKLGDKYACWYQQKPGQSPVLVIYQDSKRPSGIPERFSGSNSGNTATLTISGTQAMDEADYYCQQYGSSFTFGTGTKVTVL
notes: IgG; copies: 2 + 2

What was measured:
Settings in all cases: both partners purified
[1] = target: Recombinant hemagglutinin of H4N6 A/duck/Czech/1956, ectodomain, monomeric (Influenza A virus A/duck/Czech/1956 …, strain); test: SPR
[2] = target: Recombinant hemagglutinin of H14N6 A/long-tailed duck/Wisconsin/10OS3912/2010, ectodomain, monomeric (Influenza A virus A/long-tailed …, UniProt G5DSS3, strain); test: SPR
[3] = target: Recombinant hemagglutinin of H7N9 A/Anhui/1/2013, ectodomain (Influenza A virus A/Anhui/1/2013 …, UniProt A0A024E3P0, strain); test: SPR
[4] = target: Recombinant hemagglutinin of H10N8 A/Jiangxi-Donghu/346/2013, ectodomain, monomeric (Influenza A virus …, strain); test: SPR
[5] = target: Recombinant hemagglutinin of H3N2 A/Aichi/2/1968, ectodomain, monomeric (Influenza A virus A/Aichi/2/1968 (H3N2), strain); test: SPR
[6] = target: Recombinant hemagglutinin of H15N8 A/duck/Australia/341/1983, ectodomain, monomeric (Influenza A virus …, UniProt Q82565, strain); test: SPR
[7] = target: T1, H3 HA (strain not given) (Influenza A virus A/Aichi/2/1968 (H3N2)); test: SPR
[8] = target: H14 HA (H14N6 A/long-tailed duck/Wisconsin/10OS3912/2010) (Influenza A virus A/long-tailed …, UniProt G5DSS3); test: SPR
[9] = target: T1, H3 HA (strain not given); test: ELISA

Row | Binder | Kd [1] | Kd [2] | Kd [3] | Kd [4] | Kd [5] | Kd [6] | binding result [7] | binding result [8] | binding result [9]
1 | B1 | 9 nM | 16 nM | 14 nM | 21 nM | 0.79 nM |  |  |  | 
2 | B2 | 1.93 nM | 15.9 nM | 11.2 nM | 37.7 nM | 0.0764 nM | 518 nM |  |  | 
3 | B3 |  |  |  |  |  |  | binds | binds | 
4 | B4 |  |  |  |  |  |  |  |  | no binding
